Source: the supplement of paper PMC10567573

B1: PLAGL1 (parent)
chain: LELGSTEVLLDHLKAHAEEKPPSG
B2: LOXL2 (parent)
chain: HISSCKLGPQVSLDPMKNVTCENG

Variants of: B1
Assay: protein stability index of a GFP-peptide fusion (GPS, HEK-293T) (PSI 1-6); higher = more stable
Conditions: c terminus: a fixed tail appended
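Also: lentivirally expressed fusions sorted by FACS into six bins by GFP to DsRed ratio, PSI derived from sequencing read proportions per bin multiplied by bin number.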

Row | Variant | protein stability index
1 | LELGSTEVLLDHLKAHAEEKYPSG [P21Y] | 3.39
2 | LELGSTEVLLDHLKAHAEEKEPSG [P21E] | 5.38
3 | LELGSTEVLLDHLKAHAEEKLPSG [P21L] | 3.6
4 | LELGSTEVLLDHLKAHAEEKQPSG [P21Q] | 4.84
5 | LELGSTEVLLDHLKAHAEEKNPSG [P21N] | 4.85
6 | LELGSTEVLLDHLKAHAEEKRPSG [P21R] | 4.47
7 | LELGSTEVLLDHLKAHAEEKAPSG [P21A] | 4.8
8 | LELGSTEVLLDHLKAHAEEKWPSG [P21W] | 3.53
9 | LELGSTEVLLDHLKAHAEEKKPSG [P21K] | 5.04
10 | LELGSTEVLLDHLKAHAEEKSPSG [P21S] | 4.53
11 | LELGSTEVLLDHLKAHAEEKMPSG [P21M] | 4.4
12 | LELGSTEVLLDHLKAHIEEKPPSG [A17I] | 3.37
13 | LELGSTEVLLDHLKAHFEEKPPSG [A17F] | 2.97
14 | LELGSTEVLLDHLKAHSEEKPPSG [A17S] | 4.01
15 | LELGSTEVLLDHLKAHWEEKPPSG [A17W] | 3.35
16 | LELGSTEVLLDHLKAHCEEKPPSG [A17C] | 3.74
17 | LELGSTEVLLDHLKAHNEEKPPSG [A17N] | 4.7
18 | LELGSTEVLLDHLKAHVEEKPPSG [A17V] | 3.88
19 | LELGSTEVLLDHLKAHDEEKPPSG [A17D] | 4.66
20 | LELGSTEVLLDHLKAHMEEKPPSG [A17M] | 2.74
21 | LELGSTEVLLDHLKAHEEEKPPSG [A17E] | 4.67
22 | LELGSTEVLLDHLKAHKEEKPPSG [A17K] | 4.11

Row | Variant | protein stability index
23 | LELGSTEVLLDHLKAHHEEKPPSG [A17H] | 4.13
24 | LELGSTEVLLDHLKAHTEEKPPSG [A17T] | 4.16
25 | LELGSTEVLLDHLKAHQEEKPPSG [A17Q] | 4.65
26 | LELGSTEVLLDHLKAHPEEKPPSG [A17P] | 4.66
27 | LELGSTEVLLDHLKAHREEKPPSG [A17R] | 4.39
28 | LELGSTEVLLDHLKAHLEEKPPSG [A17L] | 3.21
29 | LELGSTEVLLDHLKAHYEEKPPSG [A17Y] | 3.4
30 | LELGSTEVLLDHLKAHGEEKPPSG [A17G] | 4.35
31 | LELGSTEVLLDHLKAHAEEKPPSA [G24A] | 4.66
32 | LELGSTEVLLDHLKAHAEEKPPSK [G24K] | 4.34
33 | LELGSTEVLLDHLKAHAEEKPPSW [G24W] | 3.23
34 | LELGSTEVLLDHLKAHAEEKPPSD [G24D] | 4.91
35 | LELGSTEVLLDHLKAHAEEKPPSL [G24L] | 3.51
36 | LELGSTEVLLDHLKAHAEEKPPSN [G24N] | 4.54
37 | LELGSTEVLLDHLKAHAEEKPPSE [G24E] | 4.68
38 | LELGSTEVLLDHLKAHAEEKPPSC [G24C] | 3.97
39 | LELGSTEVLLDHLKAHAEEKPPSI [G24I] | 4.07
40 | LELGSTEVLLDHLKAHAEEKPPSF [G24F] | 3.21
41 | LELGSTEVLLDHLKAHAEEKPPSV [G24V] | 3.88
42 | LELGSTEVLLDHLKAHAEEKPPSP [G24P] | 4.9
43 | LELGSTEVLLDHLKAHAEEKPPSQ [G24Q] | 4.63
44 | LELGSTEVLLDHLKAHAEEKPPSR [G24R] | 4.21

Row | Variant | protein stability index
45 | LELGSTEVLLDHLKAHAEEKPPSS [G24S] | 4.46
46 | LELGSTEVLLDHLKAHAEEKPPSH [G24H] | 4.47
47 | LELGSTEVLLDHLKAHAEEKPPSY [G24Y] | 3.7
48 | LELGSTEVLLDHLKAHAEEKPPSM [G24M] | 3.61
49 | LELGSTEVLLDHLKAHAEEKPPST [G24T] | 4.18
50 | LELGSTEVLLDHLKAHAEEKPPVG [S23V] | 4.34
51 | LELGSTEVLLDHLKAHAEEKPPYG [S23Y] | 3.79
52 | LELGSTEVLLDHLKAHAEEKPPKG [S23K] | 4.28
53 | LELGSTEVLLDHLKAHAEEKPPNG [S23N] | 4.47
54 | LELGSTEVLLDHLKAHAEEKPPEG [S23E] | 4.89
55 | LELGSTEVLLDHLKAHAEEKPPGG [S23G] | 4.43
56 | LELGSTEVLLDHLKAHAEEKPPMG [S23M] | 4.15
57 | LELGSTEVLLDHLKAHAEEKPPIG [S23I] | 4.1
58 | LELGSTEVLLDHLKAHAEEKPPHG [S23H] | 4.17
59 | LELGSTEVLLDHLKAHAEEKPPAG [S23A] | 3.76
60 | LELGSTEVLLDHLKAHAEEKPPQG [S23Q] | 4.71
61 | LELGSTEVLLDHLKAHAEEKPPLG [S23L] | 4.22
62 | LELGSTEVLLDHLKAHAEEKPPDG [S23D] | 5.1
63 | LELGSTEVLLDHLKAHAEEKPPTG [S23T] | 4.17
64 | LELGSTEVLLDHLKAHAEEKPPPG [S23P] | 4.5
65 | LELGSTEVLLDHLKAHAEEKPPWG [S23W] | 3.22
66 | LELGSTEVLLDHLKAHAEEKPPRG [S23R] | 4.4

Row | Variant | protein stability index
67 | LELGSTEVLLDHLKAHAEEKPPFG [S23F] | 3.72
68 | LELGSTEVLLDHLKAHAEEKPPCG [S23C] | 4.35
69 | LELGSTEVLLDHLKAHADEKPPSG [E18D] | 4.55
70 | LELGSTEVLLDHLKAHATEKPPSG [E18T] | 3.59
71 | LELGSTEVLLDHLKAHAYEKPPSG [E18Y] | 3.25
72 | LELGSTEVLLDHLKAHAGEKPPSG [E18G] | 2.66
73 | LELGSTEVLLDHLKAHAAEKPPSG [E18A] | 3.45
74 | LELGSTEVLLDHLKAHAREKPPSG [E18R] | 2.15
75 | LELGSTEVLLDHLKAHALEKPPSG [E18L] | 2.76
76 | LELGSTEVLLDHLKAHAHEKPPSG [E18H] | 3.27
77 | LELGSTEVLLDHLKAHAWEKPPSG [E18W] | 2.07
78 | LELGSTEVLLDHLKAHAPEKPPSG [E18P] | 3.28
79 | LELGSTEVLLDHLKAHACEKPPSG [E18C] | 3.39
80 | LELGSTEVLLDHLKAHAKEKPPSG [E18K] | 2.7
81 | LELGSTEVLLDHLKAHASEKPPSG [E18S] | 3.87
82 | LELGSTEVLLDHLKAHAIEKPPSG [E18I] | 2.62
83 | LELGSTEVLLDHLKAHAVEKPPSG [E18V] | 2.71
84 | LELGSTEVLLDHLKAHAFEKPPSG [E18F] | 2.08
85 | LELGSTEVLLDHLKAHANEKPPSG [E18N] | 3.53
86 | LELGSTEVLLDHLKAHAQEKPPSG [E18Q] | 3.94
87 | LELGSTEVLLDHLKAHAMEKPPSG [E18M] | 2.61

Variants of: B2
Assay: as above
Conditions: c terminus: a fixed tail appended

Row | Variant | protein stability index
88 | GISSCKLGPQVSLDPMKNVTCENG [H1G] | 4.46
89 | CISSCKLGPQVSLDPMKNVTCENG [H1C] | 3.73
90 | DISSCKLGPQVSLDPMKNVTCENG [H1D] | 4.33
91 | FISSCKLGPQVSLDPMKNVTCENG [H1F] | 2.01
92 | AISSCKLGPQVSLDPMKNVTCENG [H1A] | 3.87
93 | IISSCKLGPQVSLDPMKNVTCENG [H1I] | 2.63
94 | EISSCKLGPQVSLDPMKNVTCENG [H1E] | 3.96
